According to article PMC8567585:

These substances were tested against T1, His-OsbR (Chromobacterium violaceum ATCC 12472) (UniProt Q7NR79) (assay: EMSA). Conditions: EMSA with 32P-labeled PCR probes and reduced His-OsbR; buffer, salt, pH and temperature not given (refers to earlier papers); CHP pretreatment at room ….
T1 sequence: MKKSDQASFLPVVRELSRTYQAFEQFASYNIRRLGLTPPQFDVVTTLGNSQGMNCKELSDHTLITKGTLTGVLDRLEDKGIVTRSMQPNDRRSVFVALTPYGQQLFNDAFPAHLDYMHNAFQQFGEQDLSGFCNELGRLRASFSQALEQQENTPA

**Q.** Which binding does the source give for “ATCGGGATGCCCAGCACCGCGAACATCATCCAGACCATGAAGCAGAGGGTGAAAGCCAGCGTGCTGCTGGCCAGCACGCTGTAGCGTTTGAATGTCGGGGAAGTCATGGCGCCATATCCATGGAGTGGTCATGGCTACCACGATAAGCGACGGCGGCGCGCGCCGATATTCGTCTGTCGCAGGACTGTCAGTCTGCCAACGGACGAGGCGGATTAACCCTTACGGCTGGCGCCGGCTACTCCCAATGGGGGAGAGTCA (double strand) [narK1 promoter]” here?
**A.** no binding

**Q.** Which binding does the source give for “CCTCGTAAAAGCGGATGGCGCGGGTGGTGATGTCGAACTCCTGCGCGAGTTCGGTGATGTTGAAAACCTGTTCGCCCATGCGTCTGTCCCTTTATCTTCCCGCTGCGGCCACGCGCGCCACAGTCGGGTGCTTTTGCATTCATTGTCTGTTGACGTTGACGTAAACGTCAAGTTATCGTGATCGAAAGTAGAGCAAACAGTCCAGGAGAAGCAGATGAGCCAGAAAATCGGCGTGGTGGGCGCGGGCACGATGGGCAACGGCATCGCCCAGGTCTTCGCGATGAAGGGTTTCGACG (double strand) [CV_2087 promoter]” here?
**A.** binds

**Q.** How did the binding turn out when “CTCGCTGGCCGATCTGGGACGCGGCCCGGTGCGGGCGGCCGCCTGATCGCGGTTTCGCGCCCGCTTGGCGCGGGCGCGTCGCGGTTCCGCATAATAATAAATTGCTTGCAATTAAATAGTGCACTATTTATTATGCGGCCATGGAACAAGAAAACACGTGCCCGCCGCAGGACGCGCTTTTGCGGCTGGACCAGCAACTCTGCTTCGCGCTGTATTCCGCC (double strand) [ohrR promoter]” was run?
**A.** no binding

**Q.** Which binding does the source give for “GACCAAGTGATAGACGCCGGCACGCTGCGCGCGGTGTACGGCGTGAACGGCCGGGTGGAGCGCTGCACGCAGGGCGTGCCCCACGTGCTGGTGGACGGCCTGGCCGCAGGCTGAGCGCCGCGGCGGGGCGGCGCTCGCCGTCCCGCCCGATTGAAATCTTCACTCCCTCGCAAGAATGCGATTGAAATTGATATTCAATCGCATTTATGATGTCAGCCTCCGCTCAGGAGCCGCCCAGGCGGCCAAAACCAATAACAGGCAGACATCCTCATGACCGAGAAGCTTTAGGCC (double strand) [cbaF promoter]” here?
**A.** no binding

**Q.** How did the binding turn out when “GACCATACTAGACAGCTACGCCACCTTCAGCGCCATCGACCGCCACAGCGAAAGCCGCCAGAAACATCCCTTCGTCGCGCAATTGCTGCGCCGCTATCCGCAAATCACCACGCTG (double strand) [CV_0208 coding region]” was run?
**A.** no binding

**Q.** With “TTGGATCCTGCCGGAGCGGAATGCAACTGGACGATATCGCCGGATTGAGGCAGTCGCTGTGCGATCTGCGCGACCGGCTGCTGCAATGAACCCGTCAGGGTTTTGATAGTTAGATAGTGCACTATTAAATAGCTCATTATTTTAATCGCAACGGCGTCAAGCCAAGGAGAGCCAGATGAACCCTCTGCAAAAAGTACTGTATACCGCCGAAGCCACCGCCTGCAGTAAT (double strand) [ohrA promoter]” as the substance, how does the binding read?
**A.** binds

The substances below were run against His-OsbR (oxidative stress response and biofilm formation regulator, CV_3905, MarR family) (Chromobacterium violaceum) (assay: non-reducing SDS-PAGE (covalent dimers after oxidation); purified His-OsbR incubated with the oxidants TBHP, CHP or H2O2 at 0.1 and 1 mM, room temperature, alkylated with 100 mM NEM for 2 h, non-reducing SDS-PAGE, Coomassie staining; monomer to covalent dimer). Conditions: not given.

**Q.** “His-OsbR (oxidative stress response and biofilm formation regulator, CV_3905, MarR family) (natural protein)” was tested. Which stoichiometry N did it give?
**A.** 2
